Target: T1, 5T4 on cells (NCI-H226 endogenous; CHO over-expressing 5T4) (UniProt Q13641 32-420, limits assumed)
T1 construct: whole, on cells
T1 sequence (looked up): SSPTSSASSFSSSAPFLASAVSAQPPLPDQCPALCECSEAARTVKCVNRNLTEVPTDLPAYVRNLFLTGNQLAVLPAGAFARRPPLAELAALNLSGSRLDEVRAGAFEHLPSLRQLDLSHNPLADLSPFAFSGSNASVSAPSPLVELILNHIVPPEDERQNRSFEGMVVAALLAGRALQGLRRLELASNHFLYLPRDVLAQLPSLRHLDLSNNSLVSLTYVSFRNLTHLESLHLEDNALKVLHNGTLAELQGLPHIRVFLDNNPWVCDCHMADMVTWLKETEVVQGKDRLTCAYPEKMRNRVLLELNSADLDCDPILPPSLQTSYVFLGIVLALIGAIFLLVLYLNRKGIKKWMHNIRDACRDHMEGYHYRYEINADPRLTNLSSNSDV
Test: FACS on NCI-H226 cells, endogenous 5T4 (FIG. 45B)
Protocol: Suspension cultured cells was harvested directly, and adherent cell were digested using TrypLE Express Enzyme (cat: 12604-013, supplier Life technologies). Centrifuge at 1000 rpm for 5 min and discard the supernatant. Cells are suspended at a concentration of 2×10⁶/mL in FACS buffer (2% FBS in PBS) and add 100 µL/well of cell suspension to the plate (cat #3799, supplier Corning). Centrifuging the plates at 2000 rpm for 5 min and discard the supernatant. Re-suspend the cells in 100 µL/well of Tribody set antibodies (400 nM start, 4-fold dilution, 8 point including 0 point) and incubate the plate for 60 min at 4° C. Centrifuge the plate at 2000 rpm, 4° C. for 5 min and discard supernatant. Then wash the cells 3 times with 170 µL FACS buffer. Re-suspend the cells at 100 µL/well with secondary antibody (goat anti-human Ig Fab-FITC, Cat # 2085-02, Southern biotech) with 1:400 dilution and incubate the plate for 30 min at 4° C. in dark. Centrifuge the plate at 2000 rpm, 4° C. for 5 min and discard supernatant. […] The fluorescence intensity of the staining was measured using flow cytometer (BD, FACSVerse). The geometric mean fluorescence intensity (GMFI; median fluorescence intensity (MFI)) of set antibodies staining was calculated (BD FACSuite software). Dose-response curves were generated and EC50s for thetrispecific variants binding were calculated using GraphPad Prism software.

B1: IM-1062 Tribody (other)
heavy: GGSGGSEVQLVESGGGLVQPGGSLRLSCAASGFTFNTYAMNWVRQAPGKGLEWVARIRSKYNNYATYYADSVKDRFTISRDDSKNTLYLQMNSLRAEDTAVYYCVRHGNFGNSYVSWFAYWGQGTMVTVSSASTKGPSVFPLAPSSKSTSGGTAALGCLVKDYFPEPVTVSWNSGALTSGVHTFPAVLQSSGLYSLSSVVTVPSSSLGTQTYICNVNHKPSNTKVDKRVEPKSCPPCGGGGSDIQMTQSPSSLSASVGDRVTITCRASENIYSYLAWYQQKPGKAPKLLIYNAKTLAEGVPSRFSGSGSGTDFTLTISSLQPEDFATYYCQHHYGTPRTFGGGTKVEIKGGGGSGGGGSGGGGSGGGGSQVQLVQSGAEVKKPGASVKVSCKASGYTFTSYWMNWVRQAPGQGLEWMGRIDPYDSETHYAQKLQGRVTMTTDTSTSTAYMELRSLRSDDTAVYYCARGGYDFDVGTLYWFFDVWGQGTTVTVSS
light: GGSGGSQAVVTQEPSLTVSPGGTVTLTCRSSTGAVTTSNYANWVQQKPGQAPRGLIGGTNKRAPGTPARFSGSLLGGKAALTLSGVQPEDEAEYYCALWYSNLWVFGGGTKLTVLGQPKAAPSVTLFPPSSEELQANKATLVCLISDFYPGAVTVAWKADSSPVKAGVETTTPSKQSNNKYAASSYLSLTPEQWKSHRSYSCQVTHEGSTVEKTVAPTECPPCSGGGSDIQMTQSPSSLSASVGDRVTITCRASQGISNYLAWFQQKPGKAPKSLIYRANRLQSGVPSRFSGSGSGTDFTLTISSLQPEDVATYYCLQYDDFPWTFGQGTKLEIKGGGGSGGGGSGGGGSGGGGSQVQLVQSGAEVKKPGASVKVSCKASGYTFTSFWMHWVRQAPGQGLEWMGRIDPNRGGTEYNEKAKSRVTMTADKSTSTAYMELSSLRSEDTAVYYCAGGNPYYPMDYWGQGTTVTVSS
notes: Tri-specific antibody (Tribody): anti-CD3 epsilon Fab with an anti-5T4 scFv and an anti-NKG2A scFv, no regulatory domain; also called the Tribody format
B1 was tested, and the EC50 was 1.78 nM.

From patent US20230312753A1 (IMMUNORIZON, published 2023)
